Source: patent US20020119494A1 (Boehringer Ingelheim, published 2002)
No end group written: not given here.

Key:
Assay in all cases: cell-based or functional assay
[1] = target: T1, FPRL-1 (formyl peptide receptor like-1) receptor (human, UniProt P25090 1-351)
T1 sequence: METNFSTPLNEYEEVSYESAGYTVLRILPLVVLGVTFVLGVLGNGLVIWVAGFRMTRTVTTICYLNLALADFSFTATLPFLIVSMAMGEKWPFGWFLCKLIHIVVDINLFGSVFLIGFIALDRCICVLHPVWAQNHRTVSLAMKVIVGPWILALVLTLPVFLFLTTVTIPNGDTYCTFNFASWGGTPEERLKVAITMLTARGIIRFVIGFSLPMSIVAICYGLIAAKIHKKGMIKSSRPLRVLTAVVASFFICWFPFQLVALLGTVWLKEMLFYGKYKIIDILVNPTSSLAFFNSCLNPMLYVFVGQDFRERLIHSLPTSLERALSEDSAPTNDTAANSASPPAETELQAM

[2] = target: T1, FPRL-1 (formyl peptide receptor like-1) …; remark: listed apart in the source
[3] = target: T1, FPRL-1 (formyl peptide receptor like-1) …; remark: listed apart in the source
[4] = target: T1, FPRL-1 (formyl peptide receptor like-1) …; remark: listed apart in the source

In the case of WKYMVM (not fully specified (residue 6)) [W-peptide], the “Expression of TNFα in MonoMac 6 cells, fold induction at 3 h, W-peptide (1 µM)” value [1] is reported as 1.03 fold induction, the “Expression of IL-8 in MonoMac 6 cells, fold induction at 3 h, W-peptide (1 µM)” value [2] is reported as 1.54 fold induction and the “Expression of MMP-12 in MonoMac 6 cells, fold induction at 3 h, W-peptide (1 µM)” value [3] is reported as 1.51 fold induction. The “Migration Index of MonoMac6 cells, W-peptide (10 nM)” value [4] was 0.95 migration index (fold over control medium), the “Migration Index of MonoMac6 cells, W-peptide (100 nM)” value [4] was 1.23 migration index (fold over control medium) and the “Migration Index of MonoMac6 cells, W-peptide (1 µM)” value [4] was 2.46 migration index (fold over control medium).
